In publication PMC10397247:

Columns and labels:
4H1348-AA = target: T1, 4H1348-AA; assay: two-hybrid library CCmax;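 note: natural log of median RNA to DNA barcode read ratio; higher means stronger binding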
T1 chain: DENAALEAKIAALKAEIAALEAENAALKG

4H1391-AA = target: T2, 4H1391-AA; assay: two-hybrid library CCmax; details: mean of both orientations;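 note: natural log of median RNA to DNA barcode read ratio; higher means stronger binding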
T2 chain: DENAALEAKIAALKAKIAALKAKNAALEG

4H146-AA = target: T3, 4H146-AA; assay: two-hybrid library CCmax;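 note: natural log of median RNA to DNA barcode read ratio; higher means stronger binding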
T3 chain: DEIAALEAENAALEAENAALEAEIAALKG

4H1809-AA = target: T4, 4H1809-AA; assay: two-hybrid library CCmax; details: mean of both orientations;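 note: natural log of median RNA to DNA barcode read ratio; higher means stronger binding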
T4 chain: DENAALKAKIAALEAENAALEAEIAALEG

4H1854-AA = target: T5, 4H1854-AA; assay: two-hybrid library CCmax; details: mean of both orientations;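 note: natural log of median RNA to DNA barcode read ratio; higher means stronger binding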
T5 chain: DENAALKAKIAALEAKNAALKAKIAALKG

4H189-AA = target: T6, 4H189-AA; assay: two-hybrid library CCmax;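 note: natural log of median RNA to DNA barcode read ratio; higher means stronger binding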
T6 chain: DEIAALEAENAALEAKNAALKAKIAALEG

4H2248-AA = target: T7, 4H2248-AA; assay: two-hybrid library CCmax; details: mean of both orientations
T7 chain: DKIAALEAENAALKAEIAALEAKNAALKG

4H2283-AA = target: T8, 4H2283-AA; assay: two-hybrid library CCmax; details: mean of both orientations
T8 chain: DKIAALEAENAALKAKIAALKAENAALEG

4H2713-AA = target: T9, 4H2713-AA; assay: two-hybrid library CCmax; details: mean of both orientations
T9 chain: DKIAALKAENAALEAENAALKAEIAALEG

4H2742-AA = target: T10, 4H2742-AA; assay: two-hybrid library CCmax; details: mean of both orientations
T10 chain: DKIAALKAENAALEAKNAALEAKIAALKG

4H2948-AA = target: T11, 4H2948-AA; assay: two-hybrid library CCmax; details: mean of both orientations
T11 chain: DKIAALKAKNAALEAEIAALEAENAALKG

4H2991-AA = target: T12, 4H2991-AA; assay: two-hybrid library CCmax; details: mean of both orientations
T12 chain: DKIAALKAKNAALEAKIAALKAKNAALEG

4H3029-AA = target: T13, 4H3029-AA; assay: two-hybrid library CCmax; details: mean of both orientations
T13 chain: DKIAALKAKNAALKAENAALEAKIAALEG

4H3066-AA = target: T14, 4H3066-AA; assay: two-hybrid library CCmax; details: mean of both orientations
T14 chain: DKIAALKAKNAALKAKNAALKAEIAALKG

4H3102-AA = target: T15, 4H3102-AA; assay: two-hybrid library CCmax; details: mean of both orientations
T15 chain: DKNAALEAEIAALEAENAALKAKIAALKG

4H3121-AA = target: T16, 4H3121-AA; assay: two-hybrid library CCmax; details: mean of both orientations
T16 chain: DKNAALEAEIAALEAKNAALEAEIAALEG

4H3417-AA = target: T17, 4H3417-AA; assay: two-hybrid library CCmax; details: mean of both orientations
T17 chain: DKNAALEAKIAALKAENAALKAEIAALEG

4H3446-AA = target: T18, 4H3446-AA; assay: two-hybrid library CCmax; details: mean of both orientations
T18 chain: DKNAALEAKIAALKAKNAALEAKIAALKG

4H3591-AA = target: T19, 4H3591-AA; assay: two-hybrid library CCmax; details: mean of both orientations
T19 chain: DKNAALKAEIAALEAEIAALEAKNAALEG

4H3628-AA = target: T20, 4H3628-AA; assay: two-hybrid library CCmax; details: mean of both orientations
T20 chain: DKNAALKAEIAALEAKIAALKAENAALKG

4H3666-AA = target: T21, 4H3666-AA; assay: two-hybrid library CCmax; details: mean of both orientations
T21 chain: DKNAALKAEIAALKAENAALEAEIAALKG

4H3709-AA = target: T22, 4H3709-AA; assay: two-hybrid library CCmax; details: mean of both orientations
T22 chain: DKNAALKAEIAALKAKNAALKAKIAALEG

4H391-AA = target: T23, 4H391-AA; assay: two-hybrid library CCmax; details: mean of both orientations
T23 chain: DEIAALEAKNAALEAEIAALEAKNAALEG

4H3920-AA = target: T24, 4H3920-AA; assay: two-hybrid library CCmax; details: mean of both orientations
T24 chain: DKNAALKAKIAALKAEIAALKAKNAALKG

4H3939-AA = target: T25, 4H3939-AA; assay: two-hybrid library CCmax; details: mean of both orientations
T25 chain: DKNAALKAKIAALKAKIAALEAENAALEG

4H428-AA = target: T26, 4H428-AA; assay: two-hybrid library CCmax; details: mean of both orientations
T26 chain: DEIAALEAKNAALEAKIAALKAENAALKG

4H478-AA = target: T27, 4H478-AA; assay: two-hybrid library CCmax; details: mean of both orientations
T27 chain: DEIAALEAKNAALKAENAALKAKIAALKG

4H497-AA = target: T28, 4H497-AA; assay: two-hybrid library CCmax; details: mean of both orientations
T28 chain: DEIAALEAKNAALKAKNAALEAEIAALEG

4H656-AA = target: T29, 4H656-AA; assay: two-hybrid library CCmax; details: mean of both orientations
T29 chain: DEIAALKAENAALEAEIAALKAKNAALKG

4H675-AA = target: T30, 4H675-AA; assay: two-hybrid library CCmax; details: mean of both orientations
T30 chain: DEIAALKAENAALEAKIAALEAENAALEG

4H971-AA = target: T31, 4H971-AA; assay: two-hybrid library CCmax
T31 chain: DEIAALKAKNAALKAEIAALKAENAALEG

4H2438-bA = target: T32, 4H2438-bA; assay: two-hybrid library CCNG1
T32 chain: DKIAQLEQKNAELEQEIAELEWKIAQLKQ

4H2473-bA = target: T33, 4H2473-bA; assay: two-hybrid library CCNG1
T33 chain: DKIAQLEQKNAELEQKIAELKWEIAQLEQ

4H2503-bA = target: T34, 4H2503-bA; assay: two-hybrid library CCNG1
T34 chain: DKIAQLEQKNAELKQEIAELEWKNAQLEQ

4H2588-bA = target: T35, 4H2588-bA; assay: two-hybrid library CCNG1
T35 chain: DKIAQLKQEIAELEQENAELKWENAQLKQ

4H2692-bA = target: T36, 4H2692-bA; assay: two-hybrid library CCNG1
T36 chain: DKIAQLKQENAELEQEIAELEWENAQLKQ

4H2717-bA = target: T37, 4H2717-bA; assay: two-hybrid library CCNG1
T37 chain: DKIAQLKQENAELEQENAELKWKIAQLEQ

4H2839-bA = target: T38, 4H2839-bA; assay: two-hybrid library CCNG1
T38 chain: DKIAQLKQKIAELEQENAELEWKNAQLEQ

4H2915-bA = target: T39, 4H2915-bA; assay: two-hybrid library CCNG1
T39 chain: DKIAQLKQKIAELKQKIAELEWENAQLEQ

4H3057-bA = target: T40, 4H3057-bA; assay: two-hybrid library CCNG1
T40 chain: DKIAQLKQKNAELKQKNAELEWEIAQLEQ

4H319-bA = target: T41, 4H319-bA; assay: two-hybrid library CCNG1
T41 chain: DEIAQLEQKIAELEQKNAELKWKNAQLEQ

4H3277-bA = target: T42, 4H3277-bA; assay: two-hybrid library CCNG1
T42 chain: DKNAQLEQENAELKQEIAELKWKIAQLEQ

4H348-bA = target: T43, 4H348-bA; assay: two-hybrid library CCNG1
T43 chain: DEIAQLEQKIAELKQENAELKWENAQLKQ

4H40-bA = target: T44, 4H40-bA; assay: two-hybrid library CCNG1
T44 chain: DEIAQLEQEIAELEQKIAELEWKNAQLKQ

4H477-bA = target: T45, 4H477-bA; assay: two-hybrid library CCNG1
T45 chain: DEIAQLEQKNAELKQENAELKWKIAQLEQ

4H492-bA = target: T46, 4H492-bA; assay: two-hybrid library CCNG1
T46 chain: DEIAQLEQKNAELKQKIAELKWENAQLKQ

4H741-bA = target: T47, 4H741-bA; assay: two-hybrid library CCNG1
T47 chain: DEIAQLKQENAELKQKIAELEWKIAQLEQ

4H967-bA = target: T48, 4H967-bA; assay: two-hybrid library CCNG1
T48 chain: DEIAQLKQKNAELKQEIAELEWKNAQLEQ

B1: 4H1348-AA (peptide)
chain: DENAALEAKIAALKAEIAALEAENAALKG
interaction score (4H1348-AA): 1.56
interaction score (4H1391-AA): -0.755
interaction score (4H146-AA): -2.73
interaction score (4H1809-AA): -1.86
interaction score (4H1854-AA): -1.01
interaction score (4H189-AA): -1.2
interaction score (4H2248-AA): -1.37
interaction score (4H2283-AA): -1.14
interaction score (4H2713-AA): -1.2
interaction score (4H2742-AA): -1.31
interaction score (4H2948-AA): -1.13
interaction score (4H2991-AA): -1.75
interaction score (4H3029-AA): -1.57
interaction score (4H3066-AA): -2.16
interaction score (4H3102-AA): -1.34
interaction score (4H3121-AA): -1.43
interaction score (4H3417-AA): -1.13
interaction score (4H3446-AA): -1.25
interaction score (4H3591-AA): 0.665
interaction score (4H3628-AA): 2.05
interaction score (4H3666-AA): -1.46
interaction score (4H3709-AA): -1.57
interaction score (4H391-AA): -1.94
interaction score (4H3920-AA): 1.37
interaction score (4H3939-AA): 0.262
interaction score (4H428-AA): -0.542
interaction score (4H478-AA): 0.507
interaction score (4H497-AA): -2.02
interaction score (4H656-AA): -0.833
interaction score (4H675-AA): -1.36
interaction score (4H971-AA): -1.78

B2: 4H2438-bA (peptide)
chain: DKIAQLEQKNAELEQEIAELEWKIAQLKQ
interaction score (4H2438-bA): 1.74
interaction score (4H2473-bA): 1.36
interaction score (4H2503-bA): 0.927
interaction score (4H2588-bA): -1.29
interaction score (4H2692-bA): 0.00488
interaction score (4H2717-bA): -0.288
interaction score (4H2839-bA): 0.364
interaction score (4H2915-bA): 1.77
interaction score (4H3057-bA): 2.39
interaction score (4H319-bA): -0.948
interaction score (4H3277-bA): -1.45
interaction score (4H348-bA): 0.0426
interaction score (4H40-bA): -0.83
interaction score (4H477-bA): -0.278
interaction score (4H492-bA): 1.59
interaction score (4H741-bA): -0.215
interaction score (4H967-bA): -0.568
